These results are taken from paper PMC7423370 (Science Advances, 2020).

The target in the assay is T1, human CLC-7 with C-terminal tandem twin Strep-tag (human, UniProt P51798 1-805).
T1 sequence: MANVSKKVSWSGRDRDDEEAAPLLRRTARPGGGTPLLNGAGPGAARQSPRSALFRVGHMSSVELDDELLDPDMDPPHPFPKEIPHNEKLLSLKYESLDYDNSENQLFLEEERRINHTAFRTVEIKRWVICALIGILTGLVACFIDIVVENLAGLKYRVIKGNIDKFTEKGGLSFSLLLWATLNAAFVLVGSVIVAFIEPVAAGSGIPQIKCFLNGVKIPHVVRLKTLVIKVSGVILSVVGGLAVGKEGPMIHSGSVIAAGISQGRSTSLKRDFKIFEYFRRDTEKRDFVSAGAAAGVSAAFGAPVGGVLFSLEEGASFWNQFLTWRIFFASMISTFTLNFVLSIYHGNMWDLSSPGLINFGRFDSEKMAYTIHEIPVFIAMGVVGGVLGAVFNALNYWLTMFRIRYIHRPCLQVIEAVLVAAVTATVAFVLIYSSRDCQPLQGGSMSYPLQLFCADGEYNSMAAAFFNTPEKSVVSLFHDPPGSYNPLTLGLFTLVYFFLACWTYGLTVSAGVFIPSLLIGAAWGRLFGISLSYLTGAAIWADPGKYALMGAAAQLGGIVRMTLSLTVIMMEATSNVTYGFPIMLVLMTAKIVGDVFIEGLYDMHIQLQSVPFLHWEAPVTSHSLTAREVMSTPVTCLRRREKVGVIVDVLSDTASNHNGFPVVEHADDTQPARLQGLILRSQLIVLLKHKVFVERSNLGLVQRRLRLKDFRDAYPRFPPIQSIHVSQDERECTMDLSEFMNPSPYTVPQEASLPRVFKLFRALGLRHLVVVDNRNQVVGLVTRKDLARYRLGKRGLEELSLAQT
Put plainly: cryo-EM structure.

B1: human Ostm1, no tag (natural protein)
chain: ALPFGSSPHRVFHDLLSEQQLLEVEDLSLSLLQGGGLGPLSLPPDLPDLDPECRELLLDFANSSAELTGCLVRSARPVRLCQTCYPLFQQVVSKMDNISRAAGNTSESQSCARSLLMADRMQIVVILSEFFNTTWQEANCANCLTNNSEELSNSTVYFLNLFNHTLTCFEHNLQGNAHSLLQTKNYSEVCKNCREAYKTLSSLYSEMQKMNELENKAEPGTHLCIDVEDAMNITRKLWSRTFNCSVPCSDTVPVIAVSVFILFLPVVFYLSSFLHSEQKKRKLILPKRLKSSTSFANIQENSN
modifications: glycosylation (NAG) at Asn93, Asn128, Asn163, Asn184, Asn194, Asn216, Asn263
For B1, the binding result is “binds”.
